Laboratory results reported in US7098031.

Test system: PI-SceI meganuclease
Assay: cell_activity
Conditions: mouse eggs, purified protein co-injected, DNA/protein 1:25; 3 of 10 embryos; indirect evidence of cleavage

## PI-SceI sites in PIFFLago
  activity (% transgenic embryos): 30
